This note sets out measurements from patent US20100291705A1, “ANTIGEN EXPOSING MICELLE AND UNORDERED AGGREGATE” (EURO-DIAGNOSTICA AB, priority 2007, published 2010).

This series addresses T1, (Homo sapiens, UniProt P02749).
T1 sequence (P02749 20-345): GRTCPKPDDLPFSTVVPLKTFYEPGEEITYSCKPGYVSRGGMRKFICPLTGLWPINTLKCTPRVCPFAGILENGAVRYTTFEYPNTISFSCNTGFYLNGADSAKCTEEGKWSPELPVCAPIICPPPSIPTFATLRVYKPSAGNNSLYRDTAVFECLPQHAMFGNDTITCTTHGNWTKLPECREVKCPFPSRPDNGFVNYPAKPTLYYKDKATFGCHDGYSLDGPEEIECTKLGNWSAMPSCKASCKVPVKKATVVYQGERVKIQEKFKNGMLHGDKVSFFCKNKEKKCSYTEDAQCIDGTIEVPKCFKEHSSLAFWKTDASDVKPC
The series is described as follows: Detection of β2-GPI associated to the cardiolipin aggregates with mouse IgG anti-β2-GPI antibody (ELISA). It is filed as binding. As to conditions: after washing with 0.05% Tween-20 in PBS. Here is the method: Antigen exposing lipid aggregates were prepared according to example 2 by mixing 90% cardiolipin with 10% PE-bio. The lipid aggregates were then adsorbed on a 96-well streptavidin coated ELISA plate (Eurodiagnostica AB) at concentration 90 μg/ml. The plate was incubated for 1 h at room temperature. The plate was washed three times with 0.05% Tween-20 in PBS and then incubated with or without β2-GPI for 30 minutes.
To determine the amount β2-GPI bound to cardiolipin aggregates a mouse IgG anti-β2-GPI antibody was used. This antibody was detected with an alkaline phosphatase conjugated anti-mouse IgG antibody (Sigma-Aldrich).
All the antibodies were diluted in PBS with 1% BSA and incubated for 1 h at RT. The plate was developed with alkaline phosphatase yellow liquid system for ELISA (Sigma-Aldrich) and absorbance 405 nm determined after 10-30 min. Between each incubation step the plate was washed three times with 0.05% Tween-20 in PBS.
On the technique in general: ELISA stands for enzyme-linked immunosorbent assay.

B1: β2-GPI: protein incubated with bound cardiolipin aggregates to form the cardiolipin-β2-GPI complex (protein, UniProt P02749 20-345, looked up)
Beta-2-glycoprotein 1: T1 sequence (P02749 20-345)
As for B1, the “β2-GPI bound to cardiolipin aggregates (FIG. 8)” value was “remained associated with cardiolipin after washing with 0.05% Tween-20 in PBS”.
